Experimental data taken from the RNAGym collection of RNA variant scans (doi:10.7554/elife.90254).

B1: OR4K15 (parent)
chain: GUUAACGGUCAUAGGCCAUGGAAACUAGGAGCACCAUUUCGCUGCCAGUGAAGAAAUGAACAAAGAAAAUCUGGGCCAGGCAGGCAUCAAAAGAAAUAGUCUUGCGCUCAACCAGAAAGUCUGUAAUCAUUUUAAGGGUA

Variants of: B1
Test: self-cleavage, relative activity (ratio to wild type); higher = more cleavage; in vitro, sequencing; the parent is a self-cleaving ribozyme

Variant	self-cleavage
GUUAACGGUCAUAGGCCAUGGAAACUAGGAGCACCAUCUCGCUGCCAGUGAAGAAAUGAACAAAGAAAAUCUGGGCCAGGCAGGCAUCAAAAGAAAUAGUCUUGCGCUCAACCAGAAAGUCUGUAAUCAUUUUAAGGGUA [U38C]	1.45
GUUAACGGUCAUAGGCCAUGGAAACUAGGAGCACCAUAUCGCUGCCAGUGAAGAAAUGAACAAAGAAAAUCUGGGCCAGGCAGGCAUCAAAAAAAAUAGUCUUGCGCUCAACCAGAAAGUCUGUAAUCAUUUUAAGGGUA [U38A G93A]	2.09
GUUAACGGUCAUAGGCCAUGGAAACUAGGAGCACCAUAUCGCUGCCAGUGAAGAAAUGAACAAAGAAAAUCUGGGCCAGGCAGGCAUCAAAAGAAAUAGUCUUGCGCUCAACCAGAAGGUCUGUAAUCAUUUUAAGGGUA [U38A A118G]	2.73
GUUAACGGUCAUAGGCCAUGGAAACUAGGAGCACCAUAUCGCUGCCAGUGAAGAAAUGAACAAAGAAAAUCUGGGCCAGGCAGGCAUCAAAAGAAAUAGUCUUGCGCUCAACCAGGAAGUCUGUAAUCAUUUUAAGGGUA [U38A A116G]	0.81
GUUAACGGUCAUAGGCCAUGGAAACUAGGAGCACCAUCUCGCUGCCAGUGAAGAAAUGAACAGAGAAAAUCUGGGCCAGGCAGGCAUCAAAAGAAAUAGUCUUGCGCUCAACCAGAAAGUCUGUAAUCAUUUUAAGGGUA [U38C A63G]	1.7
GUUAACGGUCAUAGGCCAUGGAAACUAGGAGCACCAUAUCGCUGCCAGCGAAGAAAUGAACAAAGAAAAUCUGGGCCAGGCAGGCAUCAAAAGAAAUAGUCUUGCGCUCAACCAGAAAGUCUGUAAUCAUUUUAAGGGUA [U38A U49C]	1.72
GUUAACGGUCAUAGGCCAUGGAAACUAGGAGCACCAUAUCGCUGCCAGUGAAGAAAUGAACAAAGAAAAUCUGGCCCAGGCAGGCAUCAAAAGAAAUAGUCUUGCGCUCAACCAGAAAGUCUGUAAUCAUUUUAAGGGUA [U38A G75C]	0.03
GUUAACGGUCAUAGGCCAUGGAAACUAGGAGCACCAUAUCGCUGCCAAUGAAGAAAUGAACAAAGAAAAUCUGGGCCAGGCAGGCAUCAAAAGAAAUAGUCUUGCGCUCAACCAGAAAGUCUGUAAUCAUUUUAAGGGUA [U38A G48A]	1.31
GUUAACGGUCAUAGGCCAUGGAAACUAGGAGCACCAUCUCGCUGCCAGUGUAGAAAUGAACAAAGAAAAUCUGGGCCAGGCAGGCAUCAAAAGAAAUAGUCUUGCGCUCAACCAGAAAGUCUGUAAUCAUUUUAAGGGUA [U38C A51U]	1.24
GUUAACGGUCAUAGGCCAUGGAAACUAGGAGCACCAUCUCGCUGCCAGUGGAGAAAUGAACAAAGAAAAUCUGGGCCAGGCAGGCAUCAAAAGAAAUAGUCUUGCGCUCAACCAGAAAGUCUGUAAUCAUUUUAAGGGUA [U38C A51G]	1.33
GUUAACGGUCAUAGGCCAUGGAAACUAGGAGCACCAUAUCGCUGCCAGUGAAGAAAUGAACAAAGAAAAUCUGGGCCAGGCAGGCAUCAAAAGAAAUAGUCUUGCGCUCAACCAGAAAGUCUGUAAUCAUUCUAAGGGUA [U38A U132C]	1.58
GUUAACGGUCAUAGGCCAUGGAAACUAGGAGCACCAUCUCGCUGCCAGUGAAGAAAUGAGCAAAGAAAAUCUGGGCCAGGCAGGCAUCAAAAGAAAUAGUCUUGCGCUCAACCAGAAAGUCUGUAAUCAUUUUAAGGGUA [U38C A60G]	1.44
GUUAACGGUCAUAGGCCAUGGAAACUAGGAGCACCAUCUCGCUGCCAGUGAAGAAAUGAACUAAGAAAAUCUGGGCCAGGCAGGCAUCAAAAGAAAUAGUCUUGCGCUCAACCAGAAAGUCUGUAAUCAUUUUAAGGGUA [U38C A62U]	1.06
GUUAACGGUCAUAGGCCAUGGAAACUAGGAGCACCAUAUCGCUGCCAGUGAAGAAAUGAACAAAGAAAAUCUGAGCCAGGCAGGCAUCAAAAGAAAUAGUCUUGCGCUCAACCAGAAAGUCUGUAAUCAUUUUAAGGGUA [U38A G74A]	0.21
GUUAACGGUCAUAGGCCAUGGAAACUAGGAGCACCAUCUCGCUGCCAGUGAAGAAAUGAACAAAGAAAGUCUGGGCCAGGCAGGCAUCAAAAGAAAUAGUCUUGCGCUCAACCAGAAAGUCUGUAAUCAUUUUAAGGGUA [U38C A69G]	0.88
GUUAACGGUCAUAGGCCAUGGAAACUAGGAGCACCAUAUCGCUGCCAGUGAAGAAAUGAACAAAGAAAAUCUGGGCCAGGCAGGCAUCAAAAGAAAUAGUCUUGCGCUCAACCAGAAAGUCUGAAAUCAUUUUAAGGGUA [U38A U124A]	0.87
GUUAACGGUCAUAGGCCAUGGAAACUAGGAGCACCAUCUCGCUGCCAGUGAAGAGAUGAACAAAGAAAAUCUGGGCCAGGCAGGCAUCAAAAGAAAUAGUCUUGCGCUCAACCAGAAAGUCUGUAAUCAUUUUAAGGGUA [U38C A55G]	0.93
GUUAACGGUCAUAGGCCAUGGAAACUAGGAGCACCAUAUCGCUGCCAGUGAAGAAAUGAACAAAGAAAAUCUGGGCCAGGCAGGCAUCGAAAGAAAUAGUCUUGCGCUCAACCAGAAAGUCUGUAAUCAUUUUAAGGGUA [U38A A89G]	2.67
GUUAACGGUCAUAGGCCAUGGAAACUAGGAGCACCAUACCGCUGCCAGUGAAGAAAUGAACAAAGAAAAUCUGGGCCAGGCAGGCAUCAAAAGAAAUAGUCUUGCGCUCAACCAGAAAGUCUGUAAUCAUUUUAAGGGUA [U38A U39C]	1.62
GUUAACGGUCAUAGGCCAUGGAAACUAGGAGCACCAUCUCGCUGCCAGUGAAGAAGUGAACAAAGAAAAUCUGGGCCAGGCAGGCAUCAAAAGAAAUAGUCUUGCGCUCAACCAGAAAGUCUGUAAUCAUUUUAAGGGUA [U38C A56G]	1.5
GUUAACGGUCAUAGGCCAUGGAAACUAGGAGCACCAUAUCGCUGCCAGUGAAGAAAUGAACAAAGAAAAUCUGGGCCAGGCAGGCAUCAAAAGAAAUAGUCUUACGCUCAACCAGAAAGUCUGUAAUCAUUUUAAGGGUA [U38A G104A]	0

Variant	self-cleavage
GUUAACGGUCAUAGGCCAUGGAAACUAGGAGCACCAUAUCGCUGCCAGUAAAGAAAUGAACAAAGAAAAUCUGGGCCAGGCAGGCAUCAAAAGAAAUAGUCUUGCGCUCAACCAGAAAGUCUGUAAUCAUUUUAAGGGUA [U38A G50A]	1.07
GUUAACGGUCAUAGGCCAUGGAAACUAGGAGCACCAUAUCGCUGCCAGUGAAGAAACGAACAAAGAAAAUCUGGGCCAGGCAGGCAUCAAAAGAAAUAGUCUUGCGCUCAACCAGAAAGUCUGUAAUCAUUUUAAGGGUA [U38A U57C]	0.69
GUUAACGGUCAUAGGCCAUGGAAACUAGGAGCACCAUAUCGCUGCCAGUGAAGAAAUGAACAAAGAAAAUCUGGGCCAGGCAGGCAUCAGAAGAAAUAGUCUUGCGCUCAACCAGAAAGUCUGUAAUCAUUUUAAGGGUA [U38A A90G]	1.18
GUUAACGGUCAUAGGCCAUGGAAACUAGGAGCACCAUAUCGCUGCCAGUGAAGAAAUGAACAAAGAAAAUCUGGGCCAGGCAGGCAUCAAAAGAAAUAGUCUUGCGCUCAACCAGAAAGUCUGUAAUCAUUUUGAGGGUA [U38A A134G]	1.9
GUUAACGGUCAUAGGCCAUGGAAACUAGGAGCACCAUAUCGCUGCCAGUGAAGAAAUGAACAAAGAAAAUCUGGGCCAGGCAGGCAUCAAAAGGAAUAGUCUUGCGCUCAACCAGAAAGUCUGUAAUCAUUUUAAGGGUA [U38A A94G]	1.85
GUUAACGGUCAUAGGCCAUGGAAACUAGGAGCACCAUAUCGCUGCCAGUGAAGAAAUGAACAAAGAAAAUCUGGGCCAGGCAGGCAUCAAAAGCAAUAGUCUUGCGCUCAACCAGAAAGUCUGUAAUCAUUUUAAGGGUA [U38A A94C]	1.68
GUUAACGGUCAUAGGCCAUGGAAACUAGGAGCACCAUAUCGCUGCCAGUGAAGAAAUGAACAAAGAAAAUCUGGGCCAGGCAGGCAUCAAAAGUAAUAGUCUUGCGCUCAACCAGAAAGUCUGUAAUCAUUUUAAGGGUA [U38A A94U]	1.28
GUUAACGGUCAUAGGCCAUGGAAACUAGGAGCACCAUAUCGCUGCCAGUGAAGAAAUGAACAAAGAAAAUCUGGGCCAGGCAGGCAUCAAAAGAAAUAGUCUUGCGCUCGACCAGAAAGUCUGUAAUCAUUUUAAGGGUA [U38A A110G]	0.16
GUUAACGGUCAUAGGCCAUGGAAACUAGGAGCACCAUAUCGCUGCCAGUGAAGAAAUGAACAAAGAAAAUCUGGGCCAGGCAGGCAUCAAAAGAAAUAGUCUUGCGCACAACCAGAAAGUCUGUAAUCAUUUUAAGGGUA [U38A U108A]	0.04
GUUAACGGUCAUAGGCCAUGGAAACUAGGAGCACCAUAUCGCUGCCAGUGAAGAAAUGAACAAAGAAAAUCUGGGCCAGGCAGGCAUCAAAAGAAAUAGUCUUGCGCGCAACCAGAAAGUCUGUAAUCAUUUUAAGGGUA [U38A U108G]	0.01
GUUAACGGUCAUAGGCCAUGGAAACUAGGAGCACCAUAUCGCUGCCAGUGAAGAAAUGAACAAAGAAAAUCUGGGCCAGGCAGGCAUCAAAAGAAAUAGUCUUGCGCUCAACCAGAAAGUCUGUAAUCAUUUUAGGGGUA [U38A A135G]	2.17
GUUAACGGUCAUAGGCCAUGGAAACUAGGAGCACCAUAUCGCUGCCAGUGAAGAAAUGAACAAAGAAGAUCUGGGCCAGGCAGGCAUCAAAAGAAAUAGUCUUGCGCUCAACCAGAAAGUCUGUAAUCAUUUUAAGGGUA [U38A A68G]	0.82
GUUAACGGUCAUAGGCCAUGGAAACUAGGAGCACCAUAUCGCUGCCAGUGAAGAAAUGAGCAAAGAAAAUCUGGGCCAGGCAGGCAUCAAAAGAAAUAGUCUUGCGCUCAACCAGAAAGUCUGUAAUCAUUUUAAGGGUA [U38A A60G]	1.32
GUUAACGGUCAUAGGCCAUGGAAACUAGGAGCACCAUCUCGCUGCCAGUGAAGAAAUGAACAAAGGAAAUCUGGGCCAGGCAGGCAUCAAAAGAAAUAGUCUUGCGCUCAACCAGAAAGUCUGUAAUCAUUUUAAGGGUA [U38C A66G]	1.97
GUUAACGGUCAUAGGCCAUGGAAACUAGGAGCACCAUCUCGCUGCCAGUGAAGAAAUGAACAAAGUAAAUCUGGGCCAGGCAGGCAUCAAAAGAAAUAGUCUUGCGCUCAACCAGAAAGUCUGUAAUCAUUUUAAGGGUA [U38C A66U]	1.32
GUUAACGGUCAUAGGCCAUGGAAACUAGGAGCACCAUAUCGCUGCCAGUGAAGAAAUGAACAAAGAAAAUCUGGGCCAGGCAGGCAUCAAAAGAAAUAGUCUGGCGCUCAACCAGAAAGUCUGUAAUCAUUUUAAGGGUA [U38A U103G]	0.04
GUUAACGGUCAUAGGCCAUGGAAACUAGGAGCACCAUAUCGCUGCCAGUGAAGAAAUGAACAAAGAAAAUCUGGGCCAGGCAGGCAUCAAAAGAAAUAGUCUCGCGCUCAACCAGAAAGUCUGUAAUCAUUUUAAGGGUA [U38A U103C]	0.64
GUUAACGGUCAUAGGCCAUGGAAACUAGGAGCACCAUAUCGCUGCCAGUGAAGAAAUGAACAAAGAAAAUCUGGGCCAGGCAGGCAUCAAAAGAAAUAGUCUUGCGCUCAACCAGAAAGUCUGUAAUCAUUUUAAGUGUA [U38A G137U]	2.73
GUUAACGGUCAUAGGCCAUGGAAACUAGGAGCACCAUCUCGCUGCCAGUGAAGAAAUGAACAAAGAAUAUCUGGGCCAGGCAGGCAUCAAAAGAAAUAGUCUUGCGCUCAACCAGAAAGUCUGUAAUCAUUUUAAGGGUA [U38C A68U]	2.15
GUUAACGGUCAUAGGCCAUGGAAACUAGGAGCACCAUAUCGCUGCCAGUGAAGAAAUGAACAAAGAAAAUCUGGGCCAGGCAGGCAACAAAAGAAAUAGUCUUGCGCUCAACCAGAAAGUCUGUAAUCAUUUUAAGGGUA [U38A U87A]	2.41
